Laboratory results: US11472840B2, “Acetylcholine receptor-binding peptide” (AMICOGEN, INC., priority 2017, dated 2022)

Key:
acetylcholine receptor = acetylcholine receptor (Homo sapiens, UniProt P02708); experiment: Surface plasmon resonance (SPR) affinity measurement on a biosensor chip (Biacore 3000); conditions: running buffer 20 mM Tris pH 7.4, peptide 0.1 to 0.5 μM, higher binding than Synake (FIG. 10)
Experimental: A surface plasmon resonance (SPR) experiment was progressed using a biosensor chip to check affinity values for acetylcholine receptors of S6_1 (SEQ ID NO: 23, WTWKGKGTLNR), i.e., discovered peptides and Synake, i.e., a positive control group (Biacore 3000, Biacore AB, Uppsala, Sweden). […] A binding ability comparing experiment was carried out under observation conditions of a running buffer of 20 mM Tris (pH 7.4), a speed of 30 ? /min, a concentration of 10 to 50 μM (Synake), and a concentration of 0.1 to 10 μM (peptides S6_1). Respective results of the binding ability comparing experiment are shown in FIG. 7 (Synake) and FIG. 8 (peptides S6_1).
A surface plasmon resonance (SPR) experiment was progressed using a biosensor chip to check affinity values for acetylcholine receptors of optimized S6_1_C9 peptides (SEQ ID NO: 28, WKGKGTLNR) prepared in Example 6 (Biacore 3000, Biacore AB, Uppsala, Sweden).
An experiment of measuring affinity values of the peptides was carried out under observation conditions of a running buffer of 20 mM Tris (pH 7.4), a speed of 30 ? /min, and a concentration of 0.1 to 0.5 μM (peptides S6_1_C9).

[1] = molecular target: acetylcholine receptor (AchR) alpha 1; experiment: SPR (Biacore 3000), AchR coupled to chip, peptide 0.1 to 0.5 uM; reference Synake
Sequence of acetylcholine receptor (AchR) alpha 1 (P02708 whole entry): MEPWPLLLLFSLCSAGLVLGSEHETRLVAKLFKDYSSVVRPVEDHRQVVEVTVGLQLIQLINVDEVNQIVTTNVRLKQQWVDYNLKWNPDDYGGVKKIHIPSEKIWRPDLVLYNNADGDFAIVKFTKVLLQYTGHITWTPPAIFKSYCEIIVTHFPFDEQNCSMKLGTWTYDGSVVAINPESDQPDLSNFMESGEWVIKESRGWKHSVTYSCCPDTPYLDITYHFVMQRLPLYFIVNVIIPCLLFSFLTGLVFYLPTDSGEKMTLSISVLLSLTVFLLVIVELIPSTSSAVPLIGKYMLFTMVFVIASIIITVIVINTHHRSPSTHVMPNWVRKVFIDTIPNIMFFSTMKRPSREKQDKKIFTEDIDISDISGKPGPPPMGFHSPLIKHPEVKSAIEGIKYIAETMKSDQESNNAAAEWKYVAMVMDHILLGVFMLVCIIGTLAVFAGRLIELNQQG

Sequence of acetylcholine receptor (P02708 21-457): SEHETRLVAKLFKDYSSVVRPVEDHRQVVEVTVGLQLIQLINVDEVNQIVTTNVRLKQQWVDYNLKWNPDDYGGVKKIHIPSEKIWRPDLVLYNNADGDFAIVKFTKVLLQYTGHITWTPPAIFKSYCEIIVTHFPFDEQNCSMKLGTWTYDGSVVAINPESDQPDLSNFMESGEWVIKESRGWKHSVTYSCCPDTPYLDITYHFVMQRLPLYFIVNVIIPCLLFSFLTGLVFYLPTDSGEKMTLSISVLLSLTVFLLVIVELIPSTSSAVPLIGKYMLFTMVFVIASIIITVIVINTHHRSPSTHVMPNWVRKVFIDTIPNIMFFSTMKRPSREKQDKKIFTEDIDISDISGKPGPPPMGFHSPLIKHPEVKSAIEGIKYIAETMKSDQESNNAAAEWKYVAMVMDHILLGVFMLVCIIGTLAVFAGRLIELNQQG

Molecule | binding ability for acetylcholine receptor relative to Synake (acetylcholine receptor) | binding abilities, fold higher than Synake [1]
WKGKGTLNR (Ach-R) [S6_1_C9] | about 100 times | 
WKGKGTLNR [S6_1_C9] |  | 100 times
